Data reported in patent US20240166695A1, “PEPTIDIC POSITIVE ALLOSTERIC MODULATORS TARGETING TRPV1” (priority 2021, published 2024).

What was measured:
ARD of TRPV1 = target: T1, ARD of TRPV1 (Rattus norvegicus, UniProt O35433); assay: Surface plasmon resonance, ARD immobilized on CM5 sensor chip; type: binding; conditions: protein boiled to disrupt three-dimensional structure
T1 construct: made in house; host or cells: E. coli BL21 (DE3), pET-32a
Description: To further quantify the binding affinity of the designs to the ARD, we expressed and purified both designed proteins and the ARD in E. coli. The DNA sequence of each designed protein and the ARD of TRPV1 (see their primary protein sequences in Table 6) was synthesized and inserted into the pET-32a plasmid after codon optimization for protein expression in bacteria E. coli BL21 (DE3) was transformed with the recombinant plasmids. A single colony was inoculated into media containing ampicillin; cultures were incubated in 37° C. at 200 rpm. Once cell density reached to OD 0.8-1.0 at 600 inn, IPTG was introduced for induction. SDS-PAGE was used to monitor the expression. […] The protein expression was stopped by centrifugation at 8000 rpm for 30 min. We collected cells and resuspended in resuspension solution containing 50 mM Tris-HCl, 150 mM NaCl, 10% glycerol and protease inhibitor (pH 7.4). The cells were lysed by sonication. The supernatant after centrifugation was kept for future purifications. Taget proteins were obtained by Ni column, and then further purified by the reversed phase HPLC on a Jupiter C4 column (10×250 mm, Phenomenex, Torrance, CA, USA). […]
We then quantified the binding of De1 and De3 to the ARD protein fixed on the sensor chip by surface plasma resonance (SPR) (FIGS. 6A and 6B). […] Steady-state SPR responses were measured and used to determine the KD values. […]

TRPV1 [1] = target: T2, TRPV1 (UniProt Q704Y3); assay: Whole-cell patch-clamp recordings of capsaicin activation, desensitization and tachyphylaxis; type: cell-based; conditions: design co-expressed with TRPV1; for acute current desensitization upon capsaicin activation: extracellular calcium present
T2 construct: other: TRPV1 alone; absence of extracellular calcium; other: design co-expressed with TRPV1; extracellular calcium p; repeated caps; fused on or other part: Possibly YFP at the C-terminus
Method: Patch-clamp recordings were performed with a HEKA EPC10 amplifier controlled by PatchMaster software (HEKA). Whole-cell recordings at ±80 mV were used to test whether an ANAP-incorporated channel was functional. Patch pipettes were prepared from borosilicate glass and fire-polished to resistance of ˜4 MΩ. For whole-cell recording, serial resistance was compensated by 60%. A solution with […], 10 mM glucose, 0.2 mM EDTA and 3 mM HEPES (pH 7.2) was used in both bath and pipette for concentration response curve measurements in TRPV1, TRPV2 and TRPV3. To measure calcium-dependent ligand-induced desensitization and tachyphylaxis, 2 mM CaCl2 was added to the solution. Membrane potential was clamped at ±80 mV. Current was sampled at 10 kHz and filtered at 2.9 kHz. All recordings were performed at room temperature (22° C.) with the maximum variation of 1° C.
Ligands were perfused to membrane patch by a gravity-driven system (RSC-200, Bio-Logic). Bath and ligand solution were delivered through separate tubes to minimize the mixing of solutions. Patch pipette was placed in front of the perfusion tube outlet.

TRPV1 channel [2] = assay: Airyscan super resolution imaging of TRPV1-YFP and De1-CFP in HEK293 cells; type: cell-based; conditions: co-transfected HEK293 cells
Method: Super-resolution fluorescence microscopy was performed with the Zeiss LSM 880 fluorescence microscope with Airyscan. YFP fused to TRPV1 and CFP fused to the designed proteins were excited by laser line at 488 nm and 458 nm, respectively. We used a 60× oil-immersion objective (NA 1.42) in these experiments. Fluorescence imaging was performed with the default settings for CFP and YFP channels in the microscope controlled by the Zeiss ZEN software. Overlay of YFP- and CFP-channel images was also done in ZEN.

TRPV1 [3] = assay: Calcium imaging (Fluo-4) of capsaicin activation in transfected HEK293 cells; type: cell-based; conditions: 0.5 nM capsaicin; design co-expressed with TRPV1
Method: We then investigated whether, upon binding of the designed proteins, TRPV1 activation was positively modulated. […] Probenecid (2 mM) was included in all solutions to prevent Fluo-4 leakage from cells. At the end of incubation, cells were washed three times with ECS and incubated in the same solution for another 20 min at room temperature to complete the intracellular hydrolysis process of the AM ester, which converts the non-fluorescent Fluo-4/AM into the fluorescent version Fluo-4.
Coverslip with dye-loaded cells was placed in the quick-release magnetic chamber (Warner) and mounted on the stage of a Nikon Eclipse TE2000-U microscope system equipped with a Roper Cascade 128B CCD camera. Fluo-4 was excited by an Argon laser with a filter set of Z488/10 (excitation), z488rdc (dichroic) and recorded through an emission filter HQ5001p (all from Chroma). The duration of light exposure was controlled by a computer-driven mechanical shutter (Uniblitz). Cell images were acquired sequentially with an exposure period of 200 ms at an interval of 1 s. The shutter and the camera were controlled and synchronized by MetaMorph software (Universal Imaging).

TRPV1 channel [4] = assay: FRET imaging of TRPV1-YFP and design-CFP co-expressed in HEK293 cells; type: binding; conditions: for FRET ratio max: HEK293 cells; for FRET signal between design-CFP and TRPV1-YFP: co-expressed in cells; for FRET efficiency: spectraFRET, design-CFP and TRPV1-YFP
Description: Any design candidate can be assessed for the ability to bind TRPV1 using techniques including, but not limited to, the FRET protocols and SPR protocols described herein. For example, complementary fluorescent proteins (including, but not limited to, GFP CFP, YFP, and the like) may be fused recombinantly to a designed peptide and to TRPV1 for assessment of TRPV1 binding via FRET. In some non-limiting embodiments, binding of a candidate modulator to TRPV1 can be confirmed by observing a FRET ratio max of at least 1.25 when YFP is fused to the C-terminus of TRPV1, CFP is fused to the C-termini of a candidate peptide. In some embodiments, binding of a candidate modulator to TRPV1 can be confirmed by observing a FRET efficiency greater than about 4% (e.g., at least 5%, or at least 7%) when YFP is fused to the C-terminus of TRPV1, CFP is fused to the C-termini of a candidate peptide. FRET measurements can be made by co-expressing the FRET-labeled constructs in host cells, exciting the CFP construct in the host cells at 458 inn, and observing YFP emission at 530 nm. CFP emission can be separated from YFP emission by fitting of standard spectra acquired from cells expressing YFP or CFP only.
FRET efficiency is defined in its usual definition; it is inversely related to the sixth power of the distance between complementary fluorescent proteins on the binding partners. FRET efficiency is quantified from measurements of the fluorescence emission spectra, using the established method.
FRET ratios can be calculated from the increase in YFP emission due to energy transfer as described previously (Qiu, et al. J. Biol. Chem. 2005, 280, 24923, incorporated herein by reference in its entirety). CFP emission can be separated from YFP emission by fitting of standard spectra acquired from cells expressing only YFP or CFP. The fraction of YFP-tagged molecules that are associated with CFP-tagged molecules, Ab, is calculated as Ab=1/(1+KD/[Dfree]), where KD is the dissociation constant and [Dfree] is the concentration of free donor molecules. The FRET Ratio=1+Ab*(FRET Ratiomax−1). Regression analysis can be used to estimate Ab in individual cells. From each cell, the FRET ratioexp is experimentally determined. The predicted Ab value is then computed by adjusting two parameters, FRET Ratiomax, and apparent KD Ab was in turn used to give a predicted FRET ratiopredicted. By minimizing the squared errors (FRET ratioexp. FRET ratiopredicted)^2, KD was determined.
Apparent FRET efficiency can be calculated from the enhancement of YFP acceptor fluorescence emission due to energy transfer from the CFP donor using previously described methods. [see, e.g., Yang and Zheng, et al. Proc. Natl. Acad. Sci. U.S.A. 2010, 107 7083, which is incorporated herein by reference]. RatioA0, and RatioA1, are measured to calculate FRET efficiency. RatioA0, represents the ratio between acceptor emission intensities (in the absence of the donor) upon excitation at the donor and acceptor excitation wavelengths, and can be calculated at the YFP peak emission wavelength. A particular advantage of quantifying RatioA0 for FRET measurement is that changes in fluorescence intensity caused by many experimental factors cap be cancelled out by the ratiometric measurement:
To experimentally test whether our designed proteins work as PAM of TRPV1, we first tested whether they could interact with TRPV1 channel in live cells. We genetically fused YFP and CFP to the C termini of TRPV1 and our designs, respectively.
For spectroscopic imaging in FRET experiments, the imaging system was built upon a Nikon TE2000-U microscope. The excitation light was generated by an Ar laser. The duration of light exposure was controlled by a computer-driven mechanical shutter (Uniblitz). A spectrograph (Acton SpectraPro 2150i) was used in conjunction with a CCD camera (Roper Cascade 128B). […]

T1 sequence (O35433 with tags, fused parts or gaps): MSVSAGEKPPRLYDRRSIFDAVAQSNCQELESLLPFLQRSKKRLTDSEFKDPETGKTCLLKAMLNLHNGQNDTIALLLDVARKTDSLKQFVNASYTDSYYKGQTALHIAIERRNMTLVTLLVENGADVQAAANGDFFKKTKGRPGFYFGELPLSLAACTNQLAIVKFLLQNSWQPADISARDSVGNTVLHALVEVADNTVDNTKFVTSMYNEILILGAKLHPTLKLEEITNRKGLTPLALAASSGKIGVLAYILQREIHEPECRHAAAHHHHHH

| Molecule | binding with the ARD after boiling of the protein (ARD of TRPV1) | acute current desensitization upon capsaicin activation (TRPV1 [1]) | capsaicin induced tachyphylaxis (TRPV1 [1]; repeated capsaicin application) | co-localization with TRPV1 on cell membrane (TRPV1 channel [2]) | activation of TRPV1 by low capsaicin concentration when co-expressed with design (TRPV1 [3]) | FRET ratio max (TRPV1 channel [4]) | FRET signal between design-CFP and TRPV1-YFP (TRPV1 channel [4]) | FRET efficiency (TRPV1 channel [4]) [%] |
| --- | --- | --- | --- | --- | --- | --- | --- | --- |
| De1: designed 93-residue protein binder to TRPV1 ARD, scaffold 1QZM, SEQ ID NO: 8 (protein) NGYSSEDKLRIAKRHLLPKQIERNALKKGELFVSEFAILGIILFYTDEAGVRGLEREISKLCRKAVKQLLLDKSTTSSHASGFHLHDYLGVMR | completely abolished | significantly slowed down | capsaicin induced tachyphylaxis was reduced | clear co-localization | sufficient to activate TRPV1 channels | 3.86 | positive FRET signals | – |
| De2: optimized version of De1, 93 residues, scaffold 1QZM, SEQ ID NO: 37 (protein) NGYWSEDKERIAKRHLLPKQIERNALKKGELKVWEFAIFGIILFYTWEAGVRGLEREISKLCRKAVKQLLLDKSTTRSWASGFHLHDYLGVMR | – | no such an effect was observed | – | – | – | 2.35 | positive FRET signals | 7.4 |
| De4: design on scaffold 2HDZ used as negative control because it cannot refold well, SEQ ID NO: 38 (protein) LPESPRFAQKIWQQSVIGDYLARFKNDRVKALKAMEDSSNNSSMHRFAEFFAKAFEDLHRYLEEL | – | no such an effect was observed | – | – | – | – | no FRET occurred | 3.8 |
